Results published in publication PMC12416549 (2024).

T1: TNFR1 (Homo sapiens, UniProt P19438)
T1 chain: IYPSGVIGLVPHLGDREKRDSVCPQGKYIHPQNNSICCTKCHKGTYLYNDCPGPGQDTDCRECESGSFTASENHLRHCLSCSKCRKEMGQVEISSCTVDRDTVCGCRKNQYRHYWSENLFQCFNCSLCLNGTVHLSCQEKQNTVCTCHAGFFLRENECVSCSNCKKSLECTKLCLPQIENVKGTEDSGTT


Molecular target: T1, TNFR1
Test: yeast display SC50

Row | Binder | apparent Kd (screen) [nM]
1 | E3M (designed binder) SMMEEVEKAAKEYEKKKKEAIEKHLEKLKAKDKEAAERFLKELEEAAKEYAKDEAKTMSEEEAKRRAKKYKEKVLLSELSEEEQKEIKEAEEKLVRTILKYVEEAAK | 10.4
2 | K27T (designed binder) SMEEEVEKAAKEYEKKKKEAIEKHLETLKAKDKEAAERFLKELEEAAKEYAKDEAKTMSEEEAKRRAKKYKEKVLLSELSEEEQKEIKEAEEKLVRTILKYVEEAAK | 0.956
3 | E12G (designed binder) SMEEEVEKAAKGYEKKKKEAIEKHLEKLKAKDKEAAERFLKELEEAAKEYAKDEAKTMSEEEAKRRAKKYKEKVLLSELSEEEQKEIKEAEEKLVRTILKYVEEAAK | 0.49
4 | A10F (designed binder) SMEEEVEKAFKEYEKKKKEAIEKHLEKLKAKDKEAAERFLKELEEAAKEYAKDEAKTMSEEEAKRRAKKYKEKVLLSELSEEEQKEIKEAEEKLVRTILKYVEEAAK | 10.4
5 | E42N (designed binder) SMEEEVEKAAKEYEKKKKEAIEKHLEKLKAKDKEAAERFLKNLEEAAKEYAKDEAKTMSEEEAKRRAKKYKEKVLLSELSEEEQKEIKEAEEKLVRTILKYVEEAAK | 7.07
6 | K18H (designed binder) SMEEEVEKAAKEYEKKKHEAIEKHLEKLKAKDKEAAERFLKELEEAAKEYAKDEAKTMSEEEAKRRAKKYKEKVLLSELSEEEQKEIKEAEEKLVRTILKYVEEAAK | 1.27
7 | A47S (designed binder) SMEEEVEKAAKEYEKKKKEAIEKHLEKLKAKDKEAAERFLKELEEASKEYAKDEAKTMSEEEAKRRAKKYKEKVLLSELSEEEQKEIKEAEEKLVRTILKYVEEAAK | 2.05
8 | E22L (designed binder) SMEEEVEKAAKEYEKKKKEAILKHLEKLKAKDKEAAERFLKELEEAAKEYAKDEAKTMSEEEAKRRAKKYKEKVLLSELSEEEQKEIKEAEEKLVRTILKYVEEAAK | 0.869
9 | K33H (designed binder) SMEEEVEKAAKEYEKKKKEAIEKHLEKLKAKDHEAAERFLKELEEAAKEYAKDEAKTMSEEEAKRRAKKYKEKVLLSELSEEEQKEIKEAEEKLVRTILKYVEEAAK | 0.446
10 | K52C (designed binder) SMEEEVEKAAKEYEKKKKEAIEKHLEKLKAKDKEAAERFLKELEEAAKEYACDEAKTMSEEEAKRRAKKYKEKVLLSELSEEEQKEIKEAEEKLVRTILKYVEEAAK | 1.27
11 | M2P (designed binder) SPEEEVEKAAKEYEKKKKEAIEKHLEKLKAKDKEAAERFLKELEEAAKEYAKDEAKTMSEEEAKRRAKKYKEKVLLSELSEEEQKEIKEAEEKLVRTILKYVEEAAK | 0.49
12 | S1N (designed binder) NMEEEVEKAAKEYEKKKKEAIEKHLEKLKAKDKEAAERFLKELEEAAKEYAKDEAKTMSEEEAKRRAKKYKEKVLLSELSEEEQKEIKEAEEKLVRTILKYVEEAAK | 0.593
13 | K16P (designed binder) SMEEEVEKAAKEYEKPKKEAIEKHLEKLKAKDKEAAERFLKELEEAAKEYAKDEAKTMSEEEAKRRAKKYKEKVLLSELSEEEQKEIKEAEEKLVRTILKYVEEAAK | 18.3
14 | E42Q (designed binder) SMEEEVEKAAKEYEKKKKEAIEKHLEKLKAKDKEAAERFLKQLEEAAKEYAKDEAKTMSEEEAKRRAKKYKEKVLLSELSEEEQKEIKEAEEKLVRTILKYVEEAAK | 9.41
15 | V6F (designed binder) SMEEEFEKAAKEYEKKKKEAIEKHLEKLKAKDKEAAERFLKELEEAAKEYAKDEAKTMSEEEAKRRAKKYKEKVLLSELSEEEQKEIKEAEEKLVRTILKYVEEAAK | 2.25
16 | A30P (designed binder) SMEEEVEKAAKEYEKKKKEAIEKHLEKLKPKDKEAAERFLKELEEAAKEYAKDEAKTMSEEEAKRRAKKYKEKVLLSELSEEEQKEIKEAEEKLVRTILKYVEEAAK | 11.4
17 | A46T (designed binder) SMEEEVEKAAKEYEKKKKEAIEKHLEKLKAKDKEAAERFLKELEETAKEYAKDEAKTMSEEEAKRRAKKYKEKVLLSELSEEEQKEIKEAEEKLVRTILKYVEEAAK | 2.73
18 | M2K (designed binder) SKEEEVEKAAKEYEKKKKEAIEKHLEKLKAKDKEAAERFLKELEEAAKEYAKDEAKTMSEEEAKRRAKKYKEKVLLSELSEEEQKEIKEAEEKLVRTILKYVEEAAK | 0.49

Results, then the binder that gave them:

Row | apparent Kd (screen) [nM] | Binder
19 | 11.4 | Q84S (designed binder) SMEEEVEKAAKEYEKKKKEAIEKHLEKLKAKDKEAAERFLKELEEAAKEYAKDEAKTMSEEEAKRRAKKYKEKVLLSELSEEESKEIKEAEEKLVRTILKYVEEAAK
20 | 8.56 | K93P (designed binder) SMEEEVEKAAKEYEKKKKEAIEKHLEKLKAKDKEAAERFLKELEEAAKEYAKDEAKTMSEEEAKRRAKKYKEKVLLSELSEEEQKEIKEAEEPLVRTILKYVEEAAK
21 | 0.718 | K68R (designed binder) SMEEEVEKAAKEYEKKKKEAIEKHLEKLKAKDKEAAERFLKELEEAAKEYAKDEAKTMSEEEAKRRARKYKEKVLLSELSEEEQKEIKEAEEKLVRTILKYVEEAAK
22 | 1.4 | K68T (designed binder) SMEEEVEKAAKEYEKKKKEAIEKHLEKLKAKDKEAAERFLKELEEAAKEYAKDEAKTMSEEEAKRRATKYKEKVLLSELSEEEQKEIKEAEEKLVRTILKYVEEAAK
23 | 0.539 | E82F (designed binder) SMEEEVEKAAKEYEKKKKEAIEKHLEKLKAKDKEAAERFLKELEEAAKEYAKDEAKTMSEEEAKRRAKKYKEKVLLSELSEFEQKEIKEAEEKLVRTILKYVEEAAK
24 | 0.653 | K93S (designed binder) SMEEEVEKAAKEYEKKKKEAIEKHLEKLKAKDKEAAERFLKELEEAAKEYAKDEAKTMSEEEAKRRAKKYKEKVLLSELSEEEQKEIKEAEESLVRTILKYVEEAAK
25 | 0.405 | Y101A (designed binder) SMEEEVEKAAKEYEKKKKEAIEKHLEKLKAKDKEAAERFLKELEEAAKEYAKDEAKTMSEEEAKRRAKKYKEKVLLSELSEEEQKEIKEAEEKLVRTILKAVEEAAK
26 | 0.446 | L94H (designed binder) SMEEEVEKAAKEYEKKKKEAIEKHLEKLKAKDKEAAERFLKELEEAAKEYAKDEAKTMSEEEAKRRAKKYKEKVLLSELSEEEQKEIKEAEEKHVRTILKYVEEAAK
27 | 13.8 | S59W (designed binder) SMEEEVEKAAKEYEKKKKEAIEKHLEKLKAKDKEAAERFLKELEEAAKEYAKDEAKTMWEEEAKRRAKKYKEKVLLSELSEEEQKEIKEAEEKLVRTILKYVEEAAK
28 | 3 | S77N (designed binder) SMEEEVEKAAKEYEKKKKEAIEKHLEKLKAKDKEAAERFLKELEEAAKEYAKDEAKTMSEEEAKRRAKKYKEKVLLNELSEEEQKEIKEAEEKLVRTILKYVEEAAK
29 | 2.73 | V102I (designed binder) SMEEEVEKAAKEYEKKKKEAIEKHLEKLKAKDKEAAERFLKELEEAAKEYAKDEAKTMSEEEAKRRAKKYKEKVLLSELSEEEQKEIKEAEEKLVRTILKYIEEAAK
30 | 2.48 | S77G (designed binder) SMEEEVEKAAKEYEKKKKEAIEKHLEKLKAKDKEAAERFLKELEEAAKEYAKDEAKTMSEEEAKRRAKKYKEKVLLGELSEEEQKEIKEAEEKLVRTILKYVEEAAK
31 | 0.718 | K93M (designed binder) SMEEEVEKAAKEYEKKKKEAIEKHLEKLKAKDKEAAERFLKELEEAAKEYAKDEAKTMSEEEAKRRAKKYKEKVLLSELSEEEQKEIKEAEEMLVRTILKYVEEAAK
32 | 0.653 | K64N (designed binder) SMEEEVEKAAKEYEKKKKEAIEKHLEKLKAKDKEAAERFLKELEEAAKEYAKDEAKTMSEEEANRRAKKYKEKVLLSELSEEEQKEIKEAEEKLVRTILKYVEEAAK
33 | 0.593 | E81Q (designed binder) SMEEEVEKAAKEYEKKKKEAIEKHLEKLKAKDKEAAERFLKELEEAAKEYAKDEAKTMSEEEAKRRAKKYKEKVLLSELSQEEQKEIKEAEEKLVRTILKYVEEAAK
34 | 1.05 | K68A (designed binder) SMEEEVEKAAKEYEKKKKEAIEKHLEKLKAKDKEAAERFLKELEEAAKEYAKDEAKTMSEEEAKRRAAKYKEKVLLSELSEEEQKEIKEAEEKLVRTILKYVEEAAK
35 | 0.0802 | T57Y (designed binder) SMEEEVEKAAKEYEKKKKEAIEKHLEKLKAKDKEAAERFLKELEEAAKEYAKDEAKYMSEEEAKRRAKKYKEKVLLSELSEEEQKEIKEAEEKLVRTILKYVEEAAK
